Positions count from the first letter of the chain named.
B1: Clone 8.92 (VNAR)
VNAR: ARVDQTPQTITKETGESLTINCVLRDSNCALPSTYWYRKKSGSTNEESISKGGRYVETVNSGSKSFSLRINDLTVEDSGTYRCKVIAQLTQWLRGCNYRKHDVYGDGTAVTVNA
notes: VNAR on phage; Clone 8 framework
B2: Clone 8.102 (VNAR)
VNAR: B1 VNAR with T90S, Q91S, W92I, N97A, Y98G, R99V
notes: as for B1
B3: Clone 8.122 (VNAR)
VNAR: B1 VNAR with T90S, Q91S, W92I, K100A, H101S
notes: as for B1
B4: Clone 8.109 (VNAR)
VNAR: B1 VNAR with T90S, Q91S, W92I, R99T, K100L, H101Y
notes: as for B1
B5: Clone 8.124 (VNAR)
VNAR: B1 VNAR with T90S, Q91S, W92V, L93K, R94D
notes: as for B1
B6: Clone 8.129 (VNAR)
VNAR: B1 VNAR with T90S, Q91S, W92I, Y98Q, R99P
notes: as for B1
B7: Clone 8.145 (VNAR)
VNAR: B1 VNAR with T90S, Q91S, W92I, R94Q, G95P, N97Y
notes: as for B1
B8: Clone 8.123 (VNAR)
VNAR: B1 VNAR with T90S, Q91S, W92I, L93M, R99I, K100M, H101R
notes: as for B1
B9: Clone 8.144 (VNAR)
VNAR: B1 VNAR with T90S, Q91S, W92G, L93H
notes: as for B1
B10: Clone 8.101 (VNAR)
VNAR: B1 VNAR with T90H, Q91T, W92H
notes: as for B1
B11: Clone 8.105 (VNAR)
VNAR: B1 VNAR with I86V, Q88L, L89Q, T90E, Q91S, W92I
notes: as for B1
B12: Clone 8.139 (VNAR)
VNAR: B1 VNAR with I86D, Q88H, T90S, Q91S, W92I
notes: as for B1
B13: Clone 8.142 (VNAR)
VNAR: B1 VNAR with T90H, Q91A, W92N
notes: as for B1
B14: Clone 8.128 (VNAR)
VNAR: B1 VNAR with T90I, Q91K, W92N
notes: as for B1
B15: Clone 8.98 (VNAR)
VNAR: B1 VNAR with I86L, A87E, Q88K, T90S, Q91S, W92I
notes: as for B1
B16: Clone 8.107 (VNAR)
VNAR: B1 VNAR with T90S, Q91S, W92I, R94F, R99F, H101N
notes: as for B1
B17: Clone 8.120 (VNAR)
VNAR: B1 VNAR with T90S, Q91S, W92Y, L93R, R94P
notes: VNAR on phage; Clone 8 framework; same CDR3 as 8.113
B18: Clone 8.116 (VNAR)
VNAR: B1 VNAR with T90N, Q91H, W92Y
notes: as for B1
B19: Clone 8.95 (VNAR)
VNAR: B1 VNAR with T90S, Q91S, W92I, R94L, G95K, N97E
notes: as for B1
B20: Clone 8.135 (VNAR)
VNAR: B1 VNAR with T90F, Q91P, W92P
notes: as for B1
B21: Clone 8.133 (VNAR)
VNAR: B1 VNAR with T90S, Q91S, W92R, L93E, R94L
notes: VNAR on phage; Clone 8 framework; same CDR3 as 8.104
B22: Clone 8.93 (VNAR)
VNAR: B1 VNAR with L89Q, T90S, Q91S, W92I
notes: as for B1
B23: Clone 8.134 (VNAR)
VNAR: B1 VNAR with I86D, A87L, Q88T, T90S, Q91S, W92I
notes: as for B1
B24: Clone 8.118 (VNAR)
VNAR: B1 VNAR with T90S, Q91S, W92R, L93A, R94M
notes: as for B1
B25: Clone 8.99 (VNAR)
VNAR: B1 VNAR with I86L, A87F, Q88D, T90S, Q91S, W92I
notes: as for B1
B26: Clone 8.136 (VNAR)
VNAR: B1 VNAR with T90S, Q91S, W92A, L93G, R94I
notes: as for B1
B27: Clone 8.96 (VNAR)
VNAR: B1 VNAR with T90S, Q91S, W92M, L93Y, R94K
notes: as for B1
B28: Clone 8.140 (VNAR)
VNAR: B1 VNAR with Q88I, L89T, T90L, Q91S, W92I
notes: as for B1
B29: Clone 8.127 (VNAR)
VNAR: B1 VNAR with Q88K, L89P, T90N, Q91S, W92I
notes: as for B1
B30: Clone 8.132 (VNAR)
VNAR: B1 VNAR with T90S, Q91S, W92I, R99M, K100H, H101P
notes: as for B1
B31: Clone 8.103 (VNAR)
VNAR: B1 VNAR with T90S, Q91S, W92I, N97K, Y98Q, R99F, K100E, H101Y
notes: as for B1
B32: Clone 8.94 (VNAR)
VNAR: B1 VNAR with Q88D, L89V, T90G, Q91S, W92I
notes: as for B1
B33: Clone 8.114 (VNAR)
VNAR: B1 VNAR with L89P, T90S, Q91S, W92I, R99G, H101L
notes: as for B1
B34: Clone 8.108 (VNAR)
VNAR: B1 VNAR with T90S, Q91S, W92I, R99K, K100N, H101V
notes: as for B1
B35: Clone 8.106 (VNAR)
VNAR: B1 VNAR with I86V, T90S, Q91S, W92H, L93Y, R94D
notes: as for B1
B36: Clone 8.126 (VNAR)
VNAR: B1 VNAR with L89Q, T90D, W92D
notes: as for B1
B37: Clone 8.119 (VNAR)
VNAR: B1 VNAR with T90S, Q91S, W92V, L93F, R94I
notes: as for B1
B38: Clone 8.113 (VNAR)
VNAR: B1 VNAR with T90S, Q91S, W92Y, L93R, R94P
notes: VNAR on phage; Clone 8 framework; same CDR3 as 8.120
B39: Clone 8.146 (VNAR)
VNAR: B1 VNAR with T90S, Q91S, W92I, N97E, Y98A
notes: as for B1
B40: Clone 8.138 (VNAR)
VNAR: B1 VNAR with T90S, Q91S, W92L, L93S, R94F
notes: as for B1
B41: Clone 8.100 (VNAR)
VNAR: B1 VNAR with I86P, A87H, Q88M, T90S, Q91S, W92I
notes: as for B1
B42: Clone 8.117 (VNAR)
VNAR: B1 VNAR with T90S, Q91S, W92I, R94A, G95L, N97M
notes: as for B1
B43: Clone 8.111 (VNAR)
VNAR: B1 VNAR with T90S, Q91S, W92I, R99D, K100V, H101N
notes: as for B1
B44: Clone 8.131 (VNAR)
VNAR: B1 VNAR with T90S, Q91S, W92I, R99L, K100D, H101L
notes: as for B1
B45: Clone 8.104 (VNAR)
VNAR: B1 VNAR with T90S, Q91S, W92R, L93E, R94L
notes: VNAR on phage; Clone 8 framework; same CDR3 as 8.133
B46: Clone 8.115 (VNAR)
VNAR: B1 VNAR with Q88L, L89H, T90R, Q91S, W92I
notes: as for B1
B47: Clone 8.112 (VNAR)
VNAR: B1 VNAR with T90S, Q91S, W92V, L93Y, R94K
notes: as for B1
B48: Clone 8.125 (VNAR)
VNAR: B1 VNAR with T90S, Q91S, W92Y, L93E, R94T
notes: as for B1
B49: Clone 8.141 (VNAR)
VNAR: B1 VNAR with Q88K, L89A, T90S, Q91S, W92I
notes: as for B1
B50: Clone 8.121 (VNAR)
VNAR: B1 VNAR with Q88T, T90G, Q91S, W92I
notes: as for B1
B51: Clone 8.110 (VNAR)
VNAR: B1 VNAR with T90K, Q91W, W92G
notes: as for B1
B52: Clone 8.130 (VNAR)
VNAR: B1 VNAR with T90S, Q91S, W92I, R99A, K100H, H101L
notes: as for B1
B53: Clone 8.143 (VNAR)
VNAR: B1 VNAR with T90H, Q91C, W92M
notes: as for B1

What follows are binders tested against T1, recombinant human TfR-1 (human, UniProt P02786 89-760) (assay: phage ELISA).
T1 construct: Recombinant protein coated at 1 ug/ml in the phage ELISA; also called hTfR1; human transferrin receptor-1
T1 sequence (P02786 89-760 limits assumed): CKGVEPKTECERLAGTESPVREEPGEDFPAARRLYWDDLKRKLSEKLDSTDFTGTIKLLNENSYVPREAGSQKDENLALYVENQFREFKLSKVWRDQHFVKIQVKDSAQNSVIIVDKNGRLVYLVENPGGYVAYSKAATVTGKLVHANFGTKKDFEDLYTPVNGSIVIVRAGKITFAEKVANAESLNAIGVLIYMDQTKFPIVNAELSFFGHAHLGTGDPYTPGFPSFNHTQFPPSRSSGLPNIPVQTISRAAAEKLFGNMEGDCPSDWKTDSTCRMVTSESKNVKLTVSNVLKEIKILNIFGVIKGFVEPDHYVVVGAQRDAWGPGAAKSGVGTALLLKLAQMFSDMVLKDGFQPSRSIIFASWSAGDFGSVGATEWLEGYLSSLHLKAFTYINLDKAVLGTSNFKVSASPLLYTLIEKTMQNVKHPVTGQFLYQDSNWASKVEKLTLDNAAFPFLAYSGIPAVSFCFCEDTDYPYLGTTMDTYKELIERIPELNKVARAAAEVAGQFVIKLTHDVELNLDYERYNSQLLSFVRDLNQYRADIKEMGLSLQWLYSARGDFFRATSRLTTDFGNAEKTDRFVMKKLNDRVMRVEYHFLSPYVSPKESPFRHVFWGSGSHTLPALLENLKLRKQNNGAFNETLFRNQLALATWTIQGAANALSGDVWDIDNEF

Binder	A450
B1	0.051 A450
B2	0.049 A450
B3	0.047 A450
B4	0.055 A450
B5	0.049 A450
B6	0.047 A450
B7	0.053 A450
B8	0.048 A450
B9	0.05 A450
B10	0.048 A450
B11	0.047 A450
B12	0.05 A450
B13	0.052 A450
B14	0.051 A450
B15	0.055 A450
B16	0.048 A450
B17	0.048 A450
B18	0.066 A450
B19	0.049 A450
B20	0.058 A450
B21	0.047 A450
B22	0.05 A450
B23	0.053 A450
B24	0.051 A450
B25	0.059 A450
B26	0.055 A450
B27	0.051 A450

Binder	A450
B28	0.053 A450
B29	0.047 A450
B30	0.053 A450
B31	0.05 A450
B32	0.06 A450
B33	0.058 A450
B34	0.044 A450
B35	0.054 A450
B36	0.05 A450
B37	0.045 A450
B38	0.051 A450
B39	0.045 A450
B40	0.047 A450
B41	0.048 A450
B42	0.056 A450
B43	0.056 A450
B44	0.066 A450
B45	0.05 A450
B46	0.047 A450
B47	0.05 A450
B48	0.05 A450
B49	0.051 A450
B50	0.049 A450
B51	0.055 A450
B52	0.049 A450
B53	0.051 A450

The binders below were run against T2, recombinant mouse TfR-1 (mouse, UniProt Q62351 89-763) (assay: phage ELISA).
T2 construct: Recombinant protein coated at 1 ug/ml in the phage ELISA; also called mTfR1; mouse transferrin receptor-1
T2 sequence (Q62351 89-763 limits assumed): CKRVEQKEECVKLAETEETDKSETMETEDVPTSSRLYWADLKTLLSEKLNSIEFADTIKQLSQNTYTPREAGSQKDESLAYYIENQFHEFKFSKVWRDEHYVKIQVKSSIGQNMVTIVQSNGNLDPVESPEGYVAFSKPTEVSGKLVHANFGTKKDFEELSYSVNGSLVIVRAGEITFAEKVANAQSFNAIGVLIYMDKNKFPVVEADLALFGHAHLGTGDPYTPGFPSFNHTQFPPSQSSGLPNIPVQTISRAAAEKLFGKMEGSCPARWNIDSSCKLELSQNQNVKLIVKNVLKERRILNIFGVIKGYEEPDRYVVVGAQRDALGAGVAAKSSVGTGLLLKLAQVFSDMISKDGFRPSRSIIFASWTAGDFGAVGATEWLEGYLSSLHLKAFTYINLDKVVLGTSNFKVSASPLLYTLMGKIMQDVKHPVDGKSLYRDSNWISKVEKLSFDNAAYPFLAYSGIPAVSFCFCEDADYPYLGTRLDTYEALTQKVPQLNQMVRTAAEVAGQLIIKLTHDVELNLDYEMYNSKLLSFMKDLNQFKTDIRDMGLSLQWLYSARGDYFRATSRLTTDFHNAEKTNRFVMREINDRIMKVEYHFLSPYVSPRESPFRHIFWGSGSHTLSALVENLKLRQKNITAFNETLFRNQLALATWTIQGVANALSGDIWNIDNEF

Binder	A450
B1	0.055 A450
B2	0.052 A450
B3	0.048 A450
B4	0.051 A450
B5	0.048 A450
B6	0.047 A450
B7	0.045 A450
B8	0.048 A450
B9	0.045 A450
B10	0.052 A450
B11	0.051 A450
B12	0.045 A450
B13	0.045 A450
B14	0.047 A450
B15	0.053 A450
B16	0.051 A450
B17	0.049 A450
B18	0.049 A450
B19	0.054 A450
B20	0.046 A450
B21	0.047 A450
B22	0.055 A450
B23	0.046 A450
B24	0.049 A450
B25	0.053 A450
B26	0.046 A450
B27	0.054 A450

Binder	A450
B28	0.045 A450
B29	0.047 A450
B30	0.047 A450
B31	0.052 A450
B32	0.054 A450
B33	0.05 A450
B34	0.051 A450
B35	0.051 A450
B36	0.048 A450
B37	0.049 A450
B38	0.05 A450
B39	0.045 A450
B40	0.046 A450
B41	0.053 A450
B42	0.049 A450
B43	0.05 A450
B44	0.047 A450
B45	0.052 A450
B46	0.049 A450
B47	0.05 A450
B48	0.048 A450
B49	0.045 A450
B50	0.049 A450
B51	0.05 A450
B52	0.047 A450
B53	0.045 A450

From patent publication US20210395381A1 (OSSIANIX, published 2021)
